Measurements published in patent US20250034260A1 (Sanofi, published 2025).
Each block holds one binder with its values, some of them ahead of it.

Columns and labels:
[1] = biological target: T1, human FcRn (biotinylated) (human, UniProt P61769 21-119, biotinylated (site not stated)); assay: SPR, Biacore 8K+, biotinylated human FcRn captured on SA chip, pH 6.0, bivalent analyte fit; pH 6.0
T1 construct: also called neonatal Fc receptor; FcRP
Procedure: (§1) The Nanobody® VHH-Fc protein constructs (FcRn antagonists) were characterized by affinity determination for human FcRn and cyno FcRn at pH 6.0 and pH 7.4 on the Biacore 8K+ instrument. For affinity measurements, ^{˜}200-400 of biotinylated human or cyno FcRn was captured on a Series S Sensor Chip SA. The Nanobody® VHH-Fc fusion proteins were injected at 9 different concentrations (between 0.5 and 1500 nM) and allowed to associate for 120 s at 30 μL/min and dissociate for 600 s.
(§2) The data could not be fitted with the 1:1 Langmuir dissociation model, and a Bivalent Analyte fitting model was used instead due to biphasic on-rate behaviour observed during analysis. The FcRn affinities obtained for TP061 were in line with the published data (see, e.g., Vaccaro, C., Zhou, J., Ober, R. et al., “Engineering the Fc region of immunoglobulin G to modulate in vivo antibody levels”, Nat. Biotechnol. 23, 1283-1288 (2005)).

[2] = biological target: T2, cyno FcRn (biotinylated) (cynomolgus, UniProt Q8SPV9 24-297; Q8SPW0 21-119, limits assumed, biotinylated (site not stated)); assay: SPR, Biacore 8K+, biotinylated cyno FcRn captured on SA chip, pH 6.0, bivalent analyte fit; pH 6.0
T2 construct: also called Cynomolgus FcRn; cynomolgus monkey FcRn
Procedure: as §1, §2

[3] = biological target: T2, cyno FcRn (biotinylated); assay: SPR, Biacore 8K+, biotinylated cyno FcRn captured on SA chip, pH 6.0, bivalent analyte fit
Procedure: as §1, §2

[4] = biological target: T1, human FcRn (biotinylated); assay: SPR, Biacore 8K+, biotinylated human FcRn captured on SA chip, pH 6.0, bivalent analyte fit
Procedure: as §1, §2

[5] = biological target: T2, cyno FcRn (biotinylated); assay: SPR, Biacore 8K+, biotinylated cyno FcRn captured on SA chip, pH 7.4, bivalent analyte fit
Procedure: as §1, §2

[6] = biological target: T1, human FcRn (biotinylated); assay: SPR, Biacore 8K+, biotinylated human FcRn captured on SA chip, pH 7.4, bivalent analyte fit
Procedure: as §1, §2

T2 sequence (Q8SPV9 24-297 limits assumed, chain 1 of 2): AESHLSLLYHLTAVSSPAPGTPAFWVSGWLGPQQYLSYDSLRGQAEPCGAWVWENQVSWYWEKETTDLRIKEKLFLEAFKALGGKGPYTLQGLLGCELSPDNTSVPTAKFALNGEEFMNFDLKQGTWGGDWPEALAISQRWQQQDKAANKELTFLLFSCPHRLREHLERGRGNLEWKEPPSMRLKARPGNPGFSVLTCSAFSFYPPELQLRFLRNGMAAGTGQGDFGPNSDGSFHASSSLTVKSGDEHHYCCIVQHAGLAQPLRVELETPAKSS
T2 sequence (Q8SPW0 21-119 limits assumed, chain 2 of 2): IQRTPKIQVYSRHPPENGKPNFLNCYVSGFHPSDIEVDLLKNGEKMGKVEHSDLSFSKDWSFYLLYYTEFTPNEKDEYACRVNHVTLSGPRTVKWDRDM

Kd [1]: 17.2 nM
Kd [2]: 27.5 nM
B1: T-0263-00_TP061 (other)
chain: DKTHTCPPCPAPELLGGPSVFLFPPKPKDTLYITREPEVTCVVVDVSHEDPEVKFNWYVDGVEVHNAKTKPREEQYNSTYRVVSVLTVLHQDWLNGKEYKCKVSNKALPAPIEKTISKAKGQPREPQVYTLPPSRDELTKNQVSLTCLVKGFYPSDIAVEWESNGQPENNYKTTPPVLDSDGSFFLYSKLTVDKSRWQQGNVFSCSVMHEALKFHYTQKSLSLSPGK
notes: Symmetrical (homodimeric) Fc-only control made without knob-in-hole; also called control FcRn antagonist; IgG1 Fc YTE-KF Fc domain without Nanobody VHH

Kd [3]: 0.683 nM
Kd [4]: 0.873 nM
Kd [5]: 12.5 nM
Kd [6]: 14 nM
B2: T-0263-00_TP069 (Fc fusion)
chain 1: DKTHTCPPCPAPELLGGPSVFLFPPKPKDTLYITREPEVTCVVVDVSHEDPEVKFNWYVDGVEVHNAKTKPREEQYNSTYRVVSVLTVLHQDWLNGKEYKCKVSNKALPAPIEKTISKAKGQPREPQVYTLPPCRDELTKNQVSLWCLVKGFYPSDIAVEWESNGQPENNYKTTPPVLDSDGSFFLYSKLTVDKSRWQQGNVFSCSVMHEALKFHYTQKSLSLSPGGGGGSGGGGSGGGGSGGGGSGGGGSGGGGSGGGGSEVQLVESGGGVVQPGGSLRLSCAASGFTFSSYAMYWVRQAPGKGLEWVSAISSGGGSTDYADSVKGRFTISRDNSKNTLYLQMNSLRPEDTALYYCAADTLYTSLTSYSYWGQGTLVTVSS
chain 2: DKTHTCPPCPAPELLGGPSVFLFPPKPKDTLYITREPEVTCVVVDVSHEDPEVKFNWYVDGVEVHNAKTKPREEQYNSTYRVVSVLTVLHQDWLNGKEYKCKVSNKALPAPIEKTISKAKGQPREPQVCTLPPSRDELTKNQVSLSCAVKGFYPSDIAVEWESNGQPENNYKTTPPVLDSDGSFFLVSKLTVDKSRWQQGNVFSCSVMHEALKFHYTQKSLSLSPG
notes: also called C-terminal fusion construct; human IgG1 Fc YTE-KF (knob)-35GS-T0263018B11(W100cS) + Fc YTE-KF (hole)

Kd [3]: 0.541 nM
Kd [4]: 0.692 nM
Kd [5]: 11.2 nM
Kd [6]: 10.3 nM
B3: T-0263-00_TP067 (Fc fusion)
chain 1: DVQLVESGGGVVQPGGSLRLSCAASGFTFSSYAMYWVRQAPGKGLEWVSAISSGGGSTDYADSVKGRFTISRDNSKNTLYLQMNSLRPEDTALYYCAADTLYTSLTSYSYWGQGTLVTVSSDKTHTCPPCPAPELLGGPSVFLFPPKPKDTLYITREPEVTCVVVDVSHEDPEVKFNWYVDGVEVHNAKTKPREEQYNSTYRVVSVLTVLHQDWLNGKEYKCKVSNKALPAPIEKTISKAKGQPREPQVYTLPPCRDELTKNQVSLWCLVKGFYPSDIAVEWESNGQPENNYKTTPPVLDSDGSFFLYSKLTVDKSRWQQGNVFSCSVMHEALKFHYTQKSLSLSPG
chain 2: B2 chain 2
notes: also called N-terminal fusion construct; T0263018B11(E1D,W100cS)-human IgG1 Fc YTE-KF (knob) + Fc YTE-KF (hole)
